B1: MIA2 (parent)
chain: SVIEPVQESSFRSRKIAVEDENDL

Variants of: B1
Test: protein stability index of a GFP-peptide fusion (GPS, HEK-293T) (PSI 1-6); higher = more stable
Conditions: c terminus: a fixed tail appended
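Note: lentivirally expressed fusions sorted by FACS into six bins by GFP to DsRed ratio, PSI derived from sequencing read proportions per bin multiplied by bin number.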

Row | Variant | protein stability index
1 | E19P | 5.32
2 | E19L | 4.56
3 | E19K | 5.35
4 | E19V | 5.03
5 | E19S | 5.31
6 | E19C | 4.62
7 | E19G | 4.5
8 | E19R | 4.51
9 | E19F | 4.53
10 | E19A | 5.13
11 | E19M | 4.62
12 | E19I | 4.25
13 | E19T | 5.02
14 | E19D | 5.03
15 | E19H | 4.56
16 | E19Y | 4.67
17 | E19Q | 5.33
18 | E19N | 5.08
19 | E19W | 4.15
20 | R14L | 4.98
21 | R14W | 4.13
22 | R14S | 5.13
23 | R14T | 5.31
24 | R14E | 5.32

Row | Variant | protein stability index
25 | R14D | 5.75
26 | R14A | 5.53
27 | R14Q | 5.67
28 | R14H | 5.4
29 | R14V | 5.51
30 | R14N | 5.75
31 | R14M | 5.02
32 | R14P | 5.4
33 | R14G | 5.55
34 | R14K | 5.67
35 | R14Y | 4.42
36 | R14I | 5.04
37 | R14F | 4.39
38 | R14C | 5.08
39 | V6W | 4.53
40 | V6C | 5.66
41 | V6A | 5.31
42 | V6T | 5.39
43 | V6G | 5.75
44 | V6H | 5.48
45 | V6N | 4.92
46 | V6R | 5.27
47 | V6S | 5.27
48 | V6K | 5.62

Row | Variant | protein stability index
49 | V6Q | 5.37
50 | V6L | 5.16
51 | V6E | 5.76
52 | V6I | 5.34
53 | V6Y | 4.91
54 | V6M | 5.46
55 | V6D | 5.65
56 | V6P | 5.18
57 | V6F | 4.94
58 | N22T | 5.33
59 | N22K | 5.04
60 | N22A | 5.47
61 | N22Q | 5.77
62 | N22F | 4.96
63 | N22V | 5.73
64 | N22D | 5.84
65 | N22C | 5
66 | N22E | 5.08
67 | N22G | 5.04
68 | N22H | 5.43
69 | N22R | 5.09
70 | N22P | 4.96
71 | N22I | 4.89
72 | N22M | 4.74

Row | Variant | protein stability index
73 | N22L | 4.8
74 | N22S | 3.82
75 | S10Y | 4.81
76 | S10N | 5.28
77 | S10P | 5.02
78 | S10F | 4.74
79 | S10Q | 5.67
80 | S10T | 4.48
81 | S10E | 5.27
82 | S10G | 5.78
83 | S10C | 5.34
84 | S10M | 4.89
85 | S10D | 5.54
86 | S10I | 4.28
87 | S10R | 5.02
88 | S10V | 5.28
89 | S10W | 4.72
90 | S10L | 4.72
91 | S10K | 5.54
92 | S10A | 5.49
93 | S10H | 5.77
94 | S9T | 5.19
95 | S9E | 5.05
96 | S9F | 4.64

Row | Variant | protein stability index
97 | S9I | 5.31
98 | S9W | 4.86
99 | S9P | 5.66
100 | S9R | 5.45
101 | S9H | 4.98
102 | S9L | 4.48
103 | S9Y | 5.25
104 | S9K | 5.44
105 | S9A | 5.35
106 | S9D | 5.35
107 | S9V | 5.19
108 | S9G | 5.08
109 | S9C | 5.09
110 | S9N | 5.09
111 | S9Q | 5.35
112 | S9M | 4.37
113 | R12T | 5.46
114 | R12N | 5.61
115 | R12L | 5.22
116 | R12P | 6
117 | R12Q | 5.44
118 | R12F | 4.83
119 | R12Y | 4.98
120 | R12K | 5.42

Row | Variant | protein stability index
121 | R12A | 5.81
122 | R12D | 5.6
123 | R12I | 5.12
124 | R12C | 4.82
125 | R12M | 5.41
126 | R12V | 5.36
127 | R12E | 5.75
128 | R12S | 5.94
129 | R12H | 5.66
130 | R12G | 5.53
131 | R12W | 4.55
132 | D20K | 5.13
133 | D20T | 5.38
134 | D20M | 4.8
135 | D20Q | 5.25
136 | D20R | 4.94
137 | D20C | 4.89
138 | D20V | 4.57
139 | D20I | 4.64
140 | D20G | 5.21
141 | D20A | 4.63
142 | D20E | 5.72
143 | D20H | 4.35
144 | D20P | 3.94

Row | Variant | protein stability index
145 | D20N | 5.57
146 | D20L | 4.42
147 | D20F | 3.83
148 | D20W | 4.1
149 | D20Y | 4.18
150 | P5W | 3.49
151 | P5H | 4.98
152 | P5Y | 3.78
153 | P5M | 4.14
154 | P5N | 5.01
155 | P5S | 5.03
156 | P5Q | 5.26
157 | P5K | 4.38
158 | P5I | 3.56
159 | P5T | 5.3
160 | P5L | 3.56
161 | P5G | 4.65
162 | P5R | 5.13
163 | P5V | 4.95
164 | V18R | 5.72
165 | V18N | 5.1
166 | V18Y | 5.21
167 | V18K | 5.63
